According to US20180009908:

T1: HA-tagged human IgG1 Fc portion with CH3 mutations Y349S, K370Y, T366M, K409V
T1 chain: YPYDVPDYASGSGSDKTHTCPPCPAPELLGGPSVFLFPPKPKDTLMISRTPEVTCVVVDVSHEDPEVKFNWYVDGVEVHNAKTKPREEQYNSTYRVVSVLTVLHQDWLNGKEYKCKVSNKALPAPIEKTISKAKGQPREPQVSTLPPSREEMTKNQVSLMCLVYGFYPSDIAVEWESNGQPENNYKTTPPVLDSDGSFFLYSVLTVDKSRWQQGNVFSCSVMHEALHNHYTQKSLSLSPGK

T2: HA-tagged human IgG1 Fc portion with CH3 mutations Y349S, K370Y, T366V, K409V
T2 chain: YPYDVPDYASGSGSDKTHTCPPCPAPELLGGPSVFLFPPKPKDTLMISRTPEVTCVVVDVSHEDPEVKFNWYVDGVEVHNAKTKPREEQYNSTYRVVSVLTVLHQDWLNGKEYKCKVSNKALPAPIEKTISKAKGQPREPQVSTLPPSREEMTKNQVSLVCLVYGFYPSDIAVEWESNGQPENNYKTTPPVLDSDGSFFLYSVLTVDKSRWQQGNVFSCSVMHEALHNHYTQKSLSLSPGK

B1: anti-c-Met 5D5 VH-human IgG1 HC with CH3 mutations E357D, S364Q, Y407A, with 5D5 light chain (protein)
chain 1: EVQLVESGGGLVQPGGSLRLSCAASGYTFTSYWLHWVRQAPGKGLEWVGMIDPSNSDTRFNPNFKDRFTISADTSKNTAYLQMNSLRAEDTAVYYCATYRSYVTPLDYWGQGTLVTVSSASTKGPSVFPLAPSSKSTSGGTAALGCLVKDYFPEPVTVSWNSGALTSGVHTFPAVLQSSGLYSLSSVVTVPSSSLGTQTYICNVNHKPSNTKVDKRVEPKSCDKTHTCPPCPAPELLGGPSVFLFPPKPKDTLMISRTPEVTCVVVDVSHEDPEVKFNWYVDGVEVHNAKTKPREEQYNSTYRVVSVLTVLHQDWLNGKEYKCKVSNKALPAPIEKTISKAKGQPREPQVYTLPPSREDMTKNQVQLTCLVKGFYPSDIAVEWESNGQPENNYKTTPPVLDSDGSFFLASKLTVDKSRWQQGNVFSCSVMHEALHNHYTQKSLSLSPGK
chain 2: DIQMTQSPSSLSASVGDRVTITCKSSQSLLYTSSQKNYLAWYQQKPGKAPKLLIYWASTRESGVPSRFSGSGSGTDFTLTISSLQPEDFATYYCQQYYAYPWTFGQGTKVEIKRTVAAPSVFIFPPSDEQLKSGTASVVCLLNNFYPREAKVQWKVDNALQSGNSQESVTEQDSKDSTYSLSSTLTLSKADYEKHKVYACEVTHQGLSSPVTKSFNRGEC
B2: anti-c-Met 5D5 VH-human IgG1 HC with CH3 mutations E357D, S364R, Y407A, with 5D5 light chain (protein)
chain 1: EVQLVESGGGLVQPGGSLRLSCAASGYTFTSYWLHWVRQAPGKGLEWVGMIDPSNSDTRFNPNFKDRFTISADTSKNTAYLQMNSLRAEDTAVYYCATYRSYVTPLDYWGQGTLVTVSSASTKGPSVFPLAPSSKSTSGGTAALGCLVKDYFPEPVTVSWNSGALTSGVHTFPAVLQSSGLYSLSSVVTVPSSSLGTQTYICNVNHKPSNTKVDKRVEPKSCDKTHTCPPCPAPELLGGPSVFLFPPKPKDTLMISRTPEVTCVVVDVSHEDPEVKFNWYVDGVEVHNAKTKPREEQYNSTYRVVSVLTVLHQDWLNGKEYKCKVSNKALPAPIEKTISKAKGQPREPQVYTLPPSREDMTKNQVRLTCLVKGFYPSDIAVEWESNGQPENNYKTTPPVLDSDGSFFLASKLTVDKSRWQQGNVFSCSVMHEALHNHYTQKSLSLSPGK
chain 2: DIQMTQSPSSLSASVGDRVTITCKSSQSLLYTSSQKNYLAWYQQKPGKAPKLLIYWASTRESGVPSRFSGSGSGTDFTLTISSLQPEDFATYYCQQYYAYPWTFGQGTKVEIKRTVAAPSVFIFPPSDEQLKSGTASVVCLLNNFYPREAKVQWKVDNALQSGNSQESVTEQDSKDSTYSLSSTLTLSKADYEKHKVYACEVTHQGLSSPVTKSFNRGEC
B3: anti-c-Met 5D5 VH-human IgG1 HC with CH3 mutations E356G, E357D, S364Q, Y407A, with 5D5 light chain (protein)
chain 1: EVQLVESGGGLVQPGGSLRLSCAASGYTFTSYWLHWVRQAPGKGLEWVGMIDPSNSDTRFNPNFKDRFTISADTSKNTAYLQMNSLRAEDTAVYYCATYRSYVTPLDYWGQGTLVTVSSASTKGPSVFPLAPSSKSTSGGTAALGCLVKDYFPEPVTVSWNSGALTSGVHTFPAVLQSSGLYSLSSVVTVPSSSLGTQTYICNVNHKPSNTKVDKRVEPKSCDKTHTCPPCPAPELLGGPSVFLFPPKPKDTLMISRTPEVTCVVVDVSHEDPEVKFNWYVDGVEVHNAKTKPREEQYNSTYRVVSVLTVLHQDWLNGKEYKCKVSNKALPAPIEKTISKAKGQPREPQVYTLPPSRGDMTKNQVQLTCLVKGFYPSDIAVEWESNGQPENNYKTTPPVLDSDGSFFLASKLTVDKSRWQQGNVFSCSVMHEALHNHYTQKSLSLSPGK
chain 2: DIQMTQSPSSLSASVGDRVTITCKSSQSLLYTSSQKNYLAWYQQKPGKAPKLLIYWASTRESGVPSRFSGSGSGTDFTLTISSLQPEDFATYYCQQYYAYPWTFGQGTKVEIKRTVAAPSVFIFPPSDEQLKSGTASVVCLLNNFYPREAKVQWKVDNALQSGNSQESVTEQDSKDSTYSLSSTLTLSKADYEKHKVYACEVTHQGLSSPVTKSFNRGEC
B4: MetMAb HC_20.8.26_A + MetMAb LC (IgG1) (protein)
chain 1: EVQLVESGGGLVQPGGSLRLSCAASGYTFTSYWLHWVRKAPGKGLEWVGMIDPSNSDTRFNPEFKDRFTISADTSKNTAYLQMNSLRAEDTAVYYCATYRSYVTPLDYWGQGTLVTVSSASTKGPSVFPLAPSSKSTSGGTAALGCLVKDYFPEPVTVSWNSGALTSGVATGPAVLQSSGLYSLSSVVTVPSSSLGTQTYICNVNHKPSNTKVDKKVEPKSCDKTHTCPPCPAPELLGGPSVFLFPPKPKDTLMISRTPEVTCVVVDVSHEDPEVKFNWYVDGVEVHNAKTKPREEQYQSTYRVVSVLTVLHQDWLNGKEYKCKVSNKALPAPIEKTISKAKGQPREPQVSTLPPSREEMTKNQVSLMCLVYGFYPSDIAVEWESNGQPENNYKTTPPVLDSDGSFFLYSVLTVDKSRWQQGNVFSCSVMHEALHNHYTQKSLSLSPGK
chain 2: RIQMTQSPSSLSASVGDRVTITCKSSQSLLYTSSQKNYLAWYQDKPGKAPKLLIYWASTRESGVPSRFSGSGSGTDFTLTISSLQPEDFATYYCQQYYAYPWTFGQGTKVEIKGQPKAAPSVTLFPPSSEELQANKATLVCYISDFYPGAVTVAWKADSSPVKAGVETTTPSKQSNNKYAAWSYLSLTPEQWKSHRSYSCQVTHEGSTVEKTVAPTEC
B5: MetMAb HC_7.8.60_A + MetMAb LC (IgG4 HC backbone) (protein)
chain 1: EVQLVESGGGLVQPGGSLRLSCAASGYTFTSYWLHWVRKAPGKGLEWVGMIDPSNSDTRFNPEFKDRFTISADTSKNTAYLQMNSLRAEDTAVYYCATYRSYVTPLDYWGQGTLVTVSSASTKGPSVFPLAPCSRSTSESTAALGCLVKDYFPEPVTVSWNSGALTSGVATGPAVLQSSGLYSLSSVVTVPSSSLGTKTYTCNVDHKPSNTKVDKRVESKYGPPCPPCPAPEAAGGPSVFLFPPKPKDTLMISRTPEVTCVVVDVSQEDPEVQFNWYVDGVEVHNAKTKPREEQFQSTYRVVSVLTVLHQDWLNGKEYKCKVSNKGLPSSIEKTISKAKGQPREPQVYTLPPSQEEMTDNQVSLTCLVKGFYPSDIAVEWESNGQPENNYKTTPPVLMSDGSFFLASRLTVDKSRWQEGNVFSCSVMHEALHNHYTQKSLSLSLG
chain 2: RIQMTQSPSSLSASVGDRVTITCKSSQSLLYTSSQKNYLAWYQDKPGKAPKLLIYWASTRESGVPSRFSGSGSGTDFTLTISSLQPEDFATYYCQQYYAYPWTFGQGTKVEIKGQPKAAPSVTLFPPSSEELQANKATLVCYISDFYPGAVTVAWKADSSPVKAGVETTTPSKQSNNKYAAWSYLSLTPEQWKSHRSYSCQVTHEGSTVEKTVAPTEC
B6: MetMAb HC_20.8_A + MetMAb LC (IgG1) (protein)
chain 1: EVQLVESGGGLVQPGGSLRLSCAASGYTFTSYWLHWVRKAPGKGLEWVGMIDPSNSDTRFNPEFKDRFTISADTSKNTAYLQMNSLRAEDTAVYYCATYRSYVTPLDYWGQGTLVTVSSASTKGPSVFPLAPSSKSTSGGTAALGCLVKDYFPEPVTVSWNSGALTSGVATGPAVLQSSGLYSLSSVVTVPSSSLGTQTYICNVNHKPSNTKVDKKVEPKSCDKTHTCPPCPAPELLGGPSVFLFPPKPKDTLMISRTPEVTCVVVDVSHEDPEVKFNWYVDGVEVHNAKTKPREEQYQSTYRVVSVLTVLHQDWLNGKEYKCKVSNKALPAPIEKTISKAKGQPREPQVSTLPPSREEMTKNQVSLVCLVYGFYPSDIAVEWESNGQPENNYKTTPPVLDSDGSFFLYSVLTVDKSRWQQGNVFSCSVMHEALHNHYTQKSLSLSPGK
chain 2: RIQMTQSPSSLSASVGDRVTITCKSSQSLLYTSSQKNYLAWYQDKPGKAPKLLIYWASTRESGVPSRFSGSGSGTDFTLTISSLQPEDFATYYCQQYYAYPWTFGQGTKVEIKGQPKAAPSVTLFPPSSEELQANKATLVCYISDFYPGAVTVAWKADSSPVKAGVETTTPSKQSNNKYAAWSYLSLTPEQWKSHRSYSCQVTHEGSTVEKTVAPTEC

Columns and labels:
[1] = target: T1, HA-tagged human IgG1 Fc portion with …; assay: UPLC SEC of protein G-purified one-arm antibody co-expressed in HEK293F
[2] = target: T2, HA-tagged human IgG1 Fc portion with …; assay: as above
[3] = target: matuzumab HC_20.8.34_B + matuzumab LC (IgG1); assay: LCMS, IgG1 BsAb co-expression; HCA/HCB heterodimer carrying two LC2
[4] = target: matuzumab HC_20.8_B + matuzumab LC (IgG1); assay: as above
[5] = target: matuzumab HC_20.8.37_B + matuzumab LC (IgG1); assay: as above
[6] = target: matuzumab HC_20.8.34_B + matuzumab LC (IgG1); assay: LCMS, IgG1 BsAb co-expression; HCA/HCB heterodimer carrying two LC1
[7] = target: matuzumab HC_20.8_B + matuzumab LC (IgG1); assay: as above
[8] = target: matuzumab HC_20.8.37_B + matuzumab LC (IgG1); assay: as above
[9] = target: matuzumab HC_20.8.34_B + matuzumab LC (IgG1); assay: LCMS, IgG1 BsAb co-expression in HEK293F
[10] = target: matuzumab HC_20.8_B + matuzumab LC (IgG1); assay: LCMS, IgG1 BsAb co-expression in HEK293F
[11] = target: matuzumab HC_20.8.37_B + matuzumab LC (IgG1); assay: LCMS, IgG1 BsAb co-expression in HEK293F
[12] = target: matuzumab HC_7.8.60_B + matuzumab LC (IgG4 HC backbone); assay: LCMS, IgG4 BsAb co-expression; HCA/HCB heterodimer carrying two LC1
[13] = LCMS, IgG4 BsAb co-expression; HCA homodimer species
[14] = target: matuzumab HC_7.8.60_B + matuzumab LC (IgG4 HC backbone); assay: LCMS, IgG4 BsAb co-expression in HEK293F
[15] = target: matuzumab HC_7.8.60_B + matuzumab LC (IgG4 HC backbone); assay: LCMS, IgG4 BsAb co-expression; HCA/HCB heterodimer carrying two LC2
[16] = LCMS, IgG1 BsAb co-expression; HCA homodimer species

Row | Protein | % heterodimer (UPLC) [1] [%] | % heterodimer (UPLC) [2] [%] | % AB (2x LC2) (incorrect assembly) [4] [%] | % AB (2x LC1) (incorrect assembly) [7] [%] | % AB (LC1/LC2) (correct IgG BsAb assembly) [10] [%] | further results
1 | B1 | 93 | 92.5 |  |  |  | 
2 | B2 | 85 | 85 |  |  |  | 
3 | B3 | 94 | 92 |  |  |  | 
4 | B4 |  |  | 33.3 | 0 | 58.6 | % AB (2x LC2) (incorrect assembly) [3]: 4.2%; % AB (2x LC2) (incorrect assembly) [5]: 20.9%; % AB (2x LC1) (incorrect assembly) [6]: 0%; % AB (2x LC1) (incorrect assembly) [8]: 0%; % AB (LC1/LC2) (correct IgG BsAb assembly) [9]: 95.8%; % AB (LC1/LC2) (correct IgG BsAb assembly) [11]: 79.1%
5 | B5 |  |  |  |  |  | % AB (2x LC1) (incorrect assembly) [12]: 0%; % AA Homodimer (incorrect assembly) [13]: 0%; % AB (LC1/LC2) (correct IgG BsAb assembly) [14]: 100%; % AB (2x LC2) (incorrect assembly) [15]: 0%
6 | B6 |  |  | 24.4 | 0 | 75.6 | % AA Homodimer (incorrect assembly) [16]: 0%
